Data: patent publication US20260234242A1 (HAINAN SIMCERE ZAIMING PHARMACEUTICAL, published 2026)

Experiments:
[1] = target: T1, human CDH6 with EC4 removed, on HEK293T cells (HEK293T-hCDH6-EC4 deletion) (human, UniProt P55285 54-790); assay: FACS, HEK293T-hCDH6-EC4 deletion cells
T1 construct: Signal peptide not removed here
T1 sequence: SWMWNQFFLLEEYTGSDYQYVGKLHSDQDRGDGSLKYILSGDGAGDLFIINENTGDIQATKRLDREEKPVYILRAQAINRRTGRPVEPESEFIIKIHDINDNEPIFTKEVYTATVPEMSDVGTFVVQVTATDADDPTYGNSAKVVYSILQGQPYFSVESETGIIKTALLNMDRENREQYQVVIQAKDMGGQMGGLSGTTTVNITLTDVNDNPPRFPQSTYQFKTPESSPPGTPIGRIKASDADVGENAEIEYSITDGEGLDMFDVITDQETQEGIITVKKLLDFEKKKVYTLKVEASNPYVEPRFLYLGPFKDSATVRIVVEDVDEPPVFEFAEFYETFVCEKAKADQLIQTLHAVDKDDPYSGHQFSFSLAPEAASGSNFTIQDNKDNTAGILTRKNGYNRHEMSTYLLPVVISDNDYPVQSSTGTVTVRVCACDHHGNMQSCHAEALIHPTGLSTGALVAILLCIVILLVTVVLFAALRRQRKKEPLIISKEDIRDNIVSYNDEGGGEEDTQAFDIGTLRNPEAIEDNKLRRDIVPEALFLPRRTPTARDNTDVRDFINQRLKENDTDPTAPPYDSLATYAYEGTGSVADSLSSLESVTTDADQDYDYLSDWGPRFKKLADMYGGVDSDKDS
Source text: To confirm the binding epitope of the CDH6 antibody, the sequences after removal of these 5 regions were constructed into pcDNA3.1 vectors (purchased from Youbio, Cat. No. VT1001), and transfected into HEK293T cells (purchased from Cell Bank of Chinese Academy of Sciences, Cat. No. SCSP-502) to obtain 5 CDH6 truncated cell lines: HEK293T-hCDH6-EC1 deletion, HEK293T-hCDH6-EC2 deletion, HEK293T-hCDH6-EC3 deletion, HEK293T-hCDH6-EC4 deletion, and HEK293T-hCDH6-EC5 deletion.
The binding activity of the CDH6 chimeric antibodies to these 5 cell lines was assayed by FACS.

[2] = target: T2, human CDH6 with EC2 removed, on HEK293T cells (HEK293T-hCDH6-EC2 deletion) (human, UniProt P55285 54-790); assay: FACS, HEK293T-hCDH6-EC2 deletion cells
T2 construct: Signal peptide not removed here
T2 sequence: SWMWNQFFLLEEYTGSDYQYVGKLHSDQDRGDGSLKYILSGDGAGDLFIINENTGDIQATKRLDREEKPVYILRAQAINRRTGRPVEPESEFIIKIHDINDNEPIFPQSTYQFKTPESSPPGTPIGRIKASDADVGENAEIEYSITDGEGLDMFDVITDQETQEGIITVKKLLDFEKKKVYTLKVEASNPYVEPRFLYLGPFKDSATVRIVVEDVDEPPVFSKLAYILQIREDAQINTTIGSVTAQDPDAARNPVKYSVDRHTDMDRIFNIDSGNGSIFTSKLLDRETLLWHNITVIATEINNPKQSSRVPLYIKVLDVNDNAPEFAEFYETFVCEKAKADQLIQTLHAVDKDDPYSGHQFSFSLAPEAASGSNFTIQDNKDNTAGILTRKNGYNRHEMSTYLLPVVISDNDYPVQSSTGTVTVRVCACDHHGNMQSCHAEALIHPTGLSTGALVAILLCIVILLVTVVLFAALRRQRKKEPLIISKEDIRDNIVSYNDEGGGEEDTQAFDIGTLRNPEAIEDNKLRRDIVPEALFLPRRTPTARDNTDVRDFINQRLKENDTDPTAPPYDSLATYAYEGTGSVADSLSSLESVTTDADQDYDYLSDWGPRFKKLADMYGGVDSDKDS

[3] = target: T3, his-tagged human CDH6 extracellular region protein (hCDH6 ECD-his) (human, UniProt P55285 19-615); assay: ELISA, coated antigen; ELISA, coated hCDH6 ECD-his; plateau signal
T3 construct: also called Human CDH6-his; hCDH6-his; not shown: his tag
T3 sequence: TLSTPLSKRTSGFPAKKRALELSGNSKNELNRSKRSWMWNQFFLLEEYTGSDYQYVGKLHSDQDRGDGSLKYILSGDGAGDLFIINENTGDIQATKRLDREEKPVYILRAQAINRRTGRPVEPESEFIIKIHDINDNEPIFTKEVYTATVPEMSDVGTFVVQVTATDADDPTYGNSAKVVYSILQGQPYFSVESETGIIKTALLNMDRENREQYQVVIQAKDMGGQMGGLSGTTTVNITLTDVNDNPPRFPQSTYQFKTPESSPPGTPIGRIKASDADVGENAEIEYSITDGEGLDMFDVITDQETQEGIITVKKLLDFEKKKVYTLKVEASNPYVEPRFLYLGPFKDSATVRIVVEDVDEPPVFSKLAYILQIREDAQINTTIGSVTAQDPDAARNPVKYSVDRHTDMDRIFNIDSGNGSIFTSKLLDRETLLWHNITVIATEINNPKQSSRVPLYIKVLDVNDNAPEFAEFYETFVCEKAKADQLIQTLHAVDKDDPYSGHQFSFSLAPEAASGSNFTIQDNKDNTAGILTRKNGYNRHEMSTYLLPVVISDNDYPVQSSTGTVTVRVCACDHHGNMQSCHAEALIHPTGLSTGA
Experimental: Human CDH6 protein (hCDH6 ECD-his, conventionally synthesized), monkey CDH6 protein (cynoCDH6 ECD-his, conventionally synthesized; the cynoCDH6 ECD sequence was derived from Uniprot #A0A2K5TW62 (19-615)), and murine CDH6 protein (mCDH6 ECD-his, conventionally synthesized; the mCDH6 ECD sequence was derived from Uniprot #P97326 (19-615)) were diluted with PBS to a final concentration of 1 μg/mL, and added to a 96-well ELISA plate at 100 μL/well. The plate was incubated at 4° C. overnight. The next day, the plate was washed 3 times with a plate washing solution (PBS+0.01% (v/v) Tween 20), and a blocking buffer (PBS+0.01% (v/v) Tween 20+2% (w/w) BSA) was added for blocking at room temperature for 2 h. The blocking buffer was discarded, and the plate was washed 3 times. The chimeric antibodies were diluted with 1% BSA+PBS (purchased from Cytiva, Cat. No. SH30264.01) and added to the 96-well plate at 50 μL/well. After incubation at 37° C. for 2 h, the plate was washed 3 times with a plate washing solution. […] The plate was incubated at 37° C. for 1 h and then washed 5 times with a plate washing solution. A TMB substrate (purchased from Seracare, Cat. No. 5120-0077) was added at 50 μL/well and incubated at room temperature for 10 min, then a stop solution (1.0 N HCl) was added at 50 μL/well. OD450 nm values were read using a microplate reader (Biotek). Analysis was performed by the GraphPad Prism software, data were fitted, and EC50 values were calculated. The chimeric antibodies tested all had strong binding to the human CDH6 protein, the monkey CDH6 protein, and the murine CDH6 protein.

B1: CHI-CDH6-12 (antibody, human IgG1, kappa, V domains shown)
VH: EVNLVESGGGLVQPGDSLTLSCSASGFTFTDYYMSWVRQFPGKALEWLALIRNKANSYTTEYSASVKGRFTISRDNSQSILYLQMNALRAEDSATYYCARDSYYSHDGFAYWGQGTLVTVSA
VL: DIVLTQSPASLAVSLGQRATISCRASKSVSTSSYTYMHWYQQKPGQPPKLLIKFASYLESGVPARFSGSGSGTDFTLNIHPVEEEDAATYYCQHSREFPFTFGTGTKLEIKR
notes: also called CH1-CDH6-12; chimeric antibody of murine CDH6-12
Max MFI [1]: 16600 MFI
Max MFI [2]: 11000 MFI
Max OD450 [3]: 1.82 OD450

B2: CHI-CDH6-3 (antibody, human IgG1, kappa, V domains shown)
VH: QVQLQQPGAELVKPGASVKLSCKASGYTFTSYWIHWVKQRPGQGLEWIGEINPSNGVTNCNENFKSKATLTVDKSSSTAYMQLSSLTSEDSAVYYCTIPNLLWWYFDVWGAGTTVTVSS
VL: DIQMTQSPASLSVSVGETVTITCRASENIYSNLAWYQQKQGKSPQLLVYEATNLADGVPSRFSGSGSGTQYSLKINSLQSEDFGSYYCQHFWGTLWTFGGGTKLEIKR
notes: also called CH1-CDH6-3; chimeric antibody of murine CDH6-3
Max MFI [1]: 16800 MFI
Max MFI [2]: 7550 MFI
Max OD450 [3]: 2.56 OD450

B3: CHI-CDH6-4 (antibody, human IgG1, kappa, V domains shown)
VH: QVQLQQSGPELVKPGASVKISCKASGYAFSNFWMNWVKQRPGKGLEWIGWIYPGDGDTNYNGKFKDKATLTADKSSSTAYIQLSSLTSEDSAVYFCARLYDAWGFFDYWGQGTTLTVSS
VL: QIVLTQSPAIMSASPGQKVTITCSASSSVNYMHWYQQKLGSSPKLWIYDKSKLAPGVPARFSGSGSGTSYSLTISSMEAEDAASYFCHQWSSYPPMTFGGGTKLEIKR
notes: also called CH1-CDH6-4; chimeric antibody of murine CDH6-4
Max MFI [1]: 22200 MFI
Max MFI [2]: 75 MFI
Max OD450 [3]: 2.14 OD450

B4: DS-H01L02 (antibody, human IgG1, kappa, V domains shown)
VH: EVQLVQSGAEVKKPGASVKVSCKASGYTFTRNFMHWVRQAPGQGLEWMGWIYPGDGETEYAQKFQGRVTITADTSTSTAYMELSSLRSEDTAVYYCARGVYGGFAGGYFDFWGQGTLVTVSS
VL: DIQMTQSPSSLSASVGDRVTITCKASQNIYKNLAWYQQKPGKAPKLLIYDANTLQTGVPSRFSGSGSGSDFTLTISSLQPEDFATYFCQQYYSGWAFGQGTKVEIKR
notes: Positive control, variable regions from WO2018212136A1; also called positive control anti-human CDH6 antibody
Max MFI [1]: 11800 MFI
Max MFI [2]: 8390 MFI
Max OD450 [3]: 1.89 OD450

B5: CHI-CDH6-7 (antibody, human IgG1, kappa, V domains shown)
VH: EVKLVESGGGLVKPGGSLKVSCAASGFTFSDHGMAWVRQAPGKGPEWVAFISNLAYSIYYADTVTGRFTISRENAKNTLYLEMSSLRSEDTAMYYCARVYVKWYFDVWGAGTTVTVSS
VL: DIQMTQSPASLSASVGETVTITCRASENIDSYLAWYQQKQGKSPQLLVFAATLLADGVPSRFSGSGSGTQYSLKINSLQSEDVARYYCQHYYSTPLTFGAGTKLELKR
notes: also called CH1-CDH6-7; chimeric antibody of murine CDH6-7
Max MFI [1]: 17400 MFI
Max MFI [2]: 13000 MFI
Max OD450 [3]: 1.78 OD450

B6: NOV0712 (antibody, human IgG1, kappa, V domains shown)
VH: QVQLLESGGGLVQPGGSLRLSCAASGFTFSSHGMHWVRQAPGKGLEWVSVISGSGSNTGYADSVKGRFTISRDNSKNTLYLQMNSLRAEDTAVYYCARQWGSYAFDSWGQGTLVTVSS
VL: DIQMTQSPSSLSASVGDRVTITCRASQSISSYLNWYQQKPGKAPKLLIYAVSTLQSGVPSRFSGSGSGTDFTLTISSLQPEDFATYYCQQSGTFPPTTFGQGTKVEIKR
notes: as for B4
Max MFI [1]: 20600 MFI
Max MFI [2]: 39100 MFI

B7: CHI-CDH6-5 (antibody, human IgG1, kappa, V domains shown)
VH: QVQLQQSGAELVRPGTSVKMSCKAAEYTFTNYWIGWVKQRPGHGLEWIGDLYPGGDHANYNEKFEGKATLTADTSSSTAYMQLSSLTSEDSAIYYCARGMLTTGFDSWGQGTTLTVSS
VL: DIVMSQSPSSLAVSAGEKVTMSCKSSQSLFNSRTRKNYLAWYQQKPGQSPKLLIYWASTRESGVPDRFTGSGSGTDFTLTISSVQAEDLAVYYCKQSYYLRTFGGGTKLEIKR
notes: also called CH1-CDH6-5; chimeric antibody of murine CDH6-5
Max MFI [1]: 18700 MFI
Max MFI [2]: 343 MFI
Max OD450 [3]: 1.79 OD450

B8: CHI-CDH6-1 (antibody, human IgG1, kappa, V domains shown)
VH: QVQLQQPGAELVRPGSSVKLSCKASGYTFTNYWMHWVKQRPIEGLEWIGDIDPSHSETHYTQKFKDKATLTVDKSSSTAYMQLSSLTSEDSAVYYCARGDLGRFDYWGQGTTLTVSS
VL: DIVLTQSPASLAVSLGQRATISCRASESVSIHGTHLMHWYQQKSGQPPKLLIYAASNLESGVPARFSGSGSETDFTFNIHPVEEEDAATYFCQQSFEDPWTFGGGTKLEIKR
notes: also called CHI-hCDH6-1; CH1-CDH6-1
Max MFI [1]: 30000 MFI
Max MFI [2]: 51300 MFI

B9: CHI-CDH6-14 (antibody, human IgG1, kappa, V domains shown)
VH: QIQLQQSGPELVKPGTSVKISCKASGYTFTDNYINWVRQRPGQGLEWIGWIYPGTGNSYYNEKFKGKATLTVDTSSSTAYMQFSSLTSEDSAVYLCASSYGDSFDYWGQGTTLTVSS
VL: DIQMTQTTSSLSASLGNRVTISCRASQDIRNYLNWYQQKPDGTFKLLISYTSRLHSGVPSRFSGSGSGTDYSLTVSNLEPEDIATYYCQQYSQLPWTFGGGSRLEIKR
notes: also called CHI-hCDH6-14; CH1-CDH6-14
Max MFI [1]: 26600 MFI
Max MFI [2]: 814 MFI
